Results from patent publication US20260217863.

Key:
[1] = target: T1, Fv-1, expressed soluble Fv antibody of clone 5 (His-tag-TdTomato-VH)
T1 chain: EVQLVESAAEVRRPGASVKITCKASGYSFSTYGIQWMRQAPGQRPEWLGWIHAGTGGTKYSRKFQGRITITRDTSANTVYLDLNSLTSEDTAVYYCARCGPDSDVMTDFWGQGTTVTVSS

[2] = target: T2, Fv-2, expressed soluble Fv antibody of clone 23 (His-tag-TdTomato-VH)
T2 chain: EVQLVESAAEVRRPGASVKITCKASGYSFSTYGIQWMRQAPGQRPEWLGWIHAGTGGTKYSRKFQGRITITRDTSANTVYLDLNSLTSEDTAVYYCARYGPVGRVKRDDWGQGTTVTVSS

[3] = target: Fv-3, expressed soluble Fv antibody of clone 39 (His-tag-TdTomato-VH)

B1: Ribonuclease A (Type II-A) from bovine pancreas (protein)
chain: KETAAAKFERQHMDSSTSAASSSNYCNQMMKSRNLTKDRCKPVNTFVHESLADVQAVCSQKNVACKNGQTNCYQSYSTMSITDCRETGSSKYPNCAYKTTQANKHIIVACEGNPYVPVHFDASV
cleavage of HeLa total RNA by RNase A (0.7 µg/ml), agarose gel, Fv antibody at 10 µM [1]: it was observed that the cleavage reaction of RNase A was completely inhibited | stated: RNase A removed from the solution by Fv-1-beads (RNA cleavage read on an agarose gel) [1]: After Fv-Bead treatment: all four lanes (+ to ++++, + : 250 ng Fv-1-bead, RNase A 10 ng) keep faint RNA in the dashed box at about 1000-1500 bp like lane 0, marked 'RNA cleavage inhibition'. Before treatment (no bead) the four RNase A lanes show only a smear near 250 bp. | cleavage of HeLa total RNA by RNase A (0.7 µg/ml), agarose gel, Fv antibody at 10 µM [2]: it was observed that the cleavage reaction of RNase A was completely inhibited | stated: RNase A removed from the solution by Fv-2-beads (RNA cleavage read on an agarose gel) [2]: After Fv-Bead treatment: all four lanes (+ to ++++, + : 250 ng Fv-2-bead, RNase A 10 ng) keep both RNA bands (in the dashed box at about 1000-1500 bp and near 600 bp) like lane 0, marked 'RNA cleavage inhibition'. Before treatment (no bead) the four RNase A lanes have no band in the box. | cleavage of HeLa total RNA by RNase A (0.7 µg/ml), agarose gel, Fv antibody at 10 µM [3]: it was observed that the cleavage reaction of RNase A was completely inhibited
